{
  "source": "paper PMC5800818",
  "about": "“A Numb–Mdm2 fuzzy complex reveals an isoform-specific involvement of Numb in breast cancer” (The Journal of Cell Biology, 2018)",
  "binders": {"B1": {"name": "Numb-PTBo, purified (domain or fragment)", "chain": "SRPHQWQTDEEGVRTGKCSFPVKYLGHVEVDESRGMHICEDAVKRLKATGKKAVKAVLWVSADGLRVVDEKTKDLIVDQTIEKVSFCAPDRNFDRAFSYICRDGTTRRWICHCFMAVKDTGERLSHAVGCAFAACLERKQKREKE"}, "B2": {"name": "GPpY phosphopeptide (AYIGPpYL) (peptide)", "peptide": "AYIGP[pY]L", "notes": "also called GPpY peptide; source: synthetic peptide (United Biosystems)"}, "B3": {"name": "GST-Mdm2^250–290 (domain or fragment, human, UniProt Q00987-11 250-290, looked up)", "chain": "QFSVEFEVESLDSEDYSLSEEGQELSDEDDEVYQVTVYQAG", "notes": "Mdm2 residues 250–290, a short stretch of the acidic domain; also called minimal Mdm2 fragment; source: E. coli BL21 Rosetta, purified (Glutathione Sepharose)"}},
  "settings_in_all_cases": "both partners purified",
  "key": {"[1]": {"target": "T1, rhodamine-labeled Mdm2^216–302 (human, UniProt Q00987-11 216-302, rhodamine label (site not stated))", "T1 construct": "as m32 with the label; source: purified, rhodaminated in vitro", "T1 sequence (Q00987 210-296)": "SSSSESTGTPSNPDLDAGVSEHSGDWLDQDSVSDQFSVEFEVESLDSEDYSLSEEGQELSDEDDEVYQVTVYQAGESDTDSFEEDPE", "assay": "fluorescence polarisation; 50 nM rhodaminated Mdm2 216–302 with increasing concentrations of the ligand; 10 mM Tris-HCl pH 7.5, 0.15 M NaCl, 0.5 mM EDTA, 1 mM DTT"}, "[2]": {"target": "T2, Numb-PTBi (Numb^20–175), purified (human, UniProt P49757 20-175)", "T2 construct": "For NMR the protein was isotope-labelled; source: E. coli BL21 Rosetta pLysS, purified (NTA beads, Superdex-200)", "T2 sequence (looked up)": "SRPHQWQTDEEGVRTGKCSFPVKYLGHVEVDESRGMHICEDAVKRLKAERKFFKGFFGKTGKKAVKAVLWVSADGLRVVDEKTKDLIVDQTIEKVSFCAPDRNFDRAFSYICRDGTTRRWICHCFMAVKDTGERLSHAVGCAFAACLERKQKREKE", "assay": "crystal structure; Numb-PTBi with a 1.3 molar excess of GPpY peptide; hanging drops at 20 °C, 25% PEG 3350, 0.2 M lithium sulfate, 0.1 M Bis-Tris pH 6; space groups F222 and P212121"}, "[3]": {"target": "T3, Numb PTBi (Numb^20–175), His fusion (human, UniProt P49757 20-175)", "T3 construct": "source: bacterially expressed as His fusion, purified", "T3 sequence (looked up)": "T2 sequence (looked up)", "assay": "pull-down; GST-Mdm2 fragments (1 µM) on GSH beads, purified Numb fragments (5 µM in Fig. 1 F; 2 and 4 µM or 1 and 2 µM in Fig. 6), 2 h at 4 °C, 10 mM Hepes pH 7.5, 0.15 M NaCl, 5% glycerol, 0.1% Tween-20; Coomassie staining"}, "[4]": {"target": "T2, Numb-PTBi (Numb^20–175), purified", "assay": "pull-down; GST-Mdm2 fragments (1 µM) on GSH beads, purified Numb fragments (5 µM in Fig. 1 F; 2 and 4 µM or 1 and 2 µM in Fig. 6), 2 h at 4 °C, 10 mM Hepes pH 7.5, 0.15 M NaCl, 5% glycerol, 0.1% Tween-20; Coomassie staining"}},
  "note": "Non-standard residues stand in square brackets, D forms with d. No end group written: not given here. pY = N[C@@H](Cc1ccc(OP(=O)(O)O)cc1)C(=O)O",
  "data": [
    {"binder": "B1", "values": [
      {"measurement": "fold reduction of binding affinity against PTBi", "setting": "[1]", "value": "~30", "unit": "fold"}
    ]},
    {"binder": "B2", "values": [
      {"measurement": "binding result", "setting": "[2]", "value": "binds"}
    ]},
    {"binder": "B3", "values": [
      {"measurement": "binding result", "setting": "[3]", "value": "binds"},
      {"measurement": "binding result", "setting": "[4]", "value": "binds"}
    ]}
  ]
}
